Sequences and labels used below:
T1: OsERP (PN20696) aa 23-120 (Oryza sativa, UniProt Q0JBH9 23-120)
T1 construct: bait, Gal4 DBD fusion; also called Elicitor responsive protein
T1 sequence: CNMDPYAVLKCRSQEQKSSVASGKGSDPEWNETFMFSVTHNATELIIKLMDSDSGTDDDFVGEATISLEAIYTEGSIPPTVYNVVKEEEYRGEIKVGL

T2: Os006819-2510 aa 1-150 (Oryza sativa)
T2 construct: bait, Gal4 DBD fusion; also called PN20462; Hypothetical Protein 006819-2510, Similar to Senescence-Related Protein 5 from Hemerocallis Hybrid Cultivar
T2 chain: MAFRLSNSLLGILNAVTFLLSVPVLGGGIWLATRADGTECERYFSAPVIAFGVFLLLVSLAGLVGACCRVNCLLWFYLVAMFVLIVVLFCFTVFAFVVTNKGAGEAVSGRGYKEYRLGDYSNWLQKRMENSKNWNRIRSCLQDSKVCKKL

T3: PN20674 aa 64-263 (Oryza sativa, UniProt Q6AVA8 64-263)
T3 construct: prey, AD fusion; also called Pyruvate orthophosphate dikinase-like
T3 sequence: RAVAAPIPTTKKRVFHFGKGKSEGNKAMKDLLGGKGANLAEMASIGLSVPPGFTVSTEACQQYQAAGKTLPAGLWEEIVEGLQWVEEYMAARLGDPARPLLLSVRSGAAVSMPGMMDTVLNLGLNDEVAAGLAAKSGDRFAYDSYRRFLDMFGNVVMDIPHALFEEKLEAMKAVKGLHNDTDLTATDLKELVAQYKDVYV

T4: PN20674 aa 71-298 (Oryza sativa, UniProt Q6AVA8 71-298)
T4 construct: prey, AD fusion; also called Pyruvate orthophosphate dikinase-like
T4 sequence: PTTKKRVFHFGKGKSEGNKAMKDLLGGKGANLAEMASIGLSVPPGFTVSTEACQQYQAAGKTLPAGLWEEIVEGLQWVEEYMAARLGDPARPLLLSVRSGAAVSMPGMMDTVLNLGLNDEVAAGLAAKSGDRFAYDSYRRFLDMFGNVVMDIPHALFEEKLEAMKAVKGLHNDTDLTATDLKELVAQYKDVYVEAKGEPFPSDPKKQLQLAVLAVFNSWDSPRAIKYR

T5: OsCATA aa 332-433 (Oryza sativa, UniProt P0C549 332-433)
T5 construct: prey, AD fusion; also called PN20899; O. sativa Catalase A Isozyme
T5 sequence: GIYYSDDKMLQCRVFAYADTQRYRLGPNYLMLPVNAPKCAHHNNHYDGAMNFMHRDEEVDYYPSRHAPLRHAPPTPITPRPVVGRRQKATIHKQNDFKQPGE

T6: OsCS aa 411-489 (Oryza sativa, UniProt A2Y0X2 411-489)
T6 construct: prey, AD fusion; also called PN19707; O. sativa Cellulose Synthase Catalytic Subunit, RSW1-Like
T6 sequence: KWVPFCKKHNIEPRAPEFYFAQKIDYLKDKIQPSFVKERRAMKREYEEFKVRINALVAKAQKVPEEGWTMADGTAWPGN

T7: OsPN22154 aa 390-562 (Oryza sativa, UniProt Q6Z6L4 390-562)
T7 construct: prey, AD fusion; also called Novel Protein PN22154, Similar to A. thaliana Glutamyl Aminopeptidase
T7 sequence: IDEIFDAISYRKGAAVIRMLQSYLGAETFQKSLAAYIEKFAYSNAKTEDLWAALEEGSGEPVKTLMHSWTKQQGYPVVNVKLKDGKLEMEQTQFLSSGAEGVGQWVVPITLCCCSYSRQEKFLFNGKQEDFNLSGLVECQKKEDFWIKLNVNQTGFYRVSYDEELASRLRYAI

T8: OsSSS aa 68-270 (Oryza sativa, UniProt A2Y9M4 68-270)
T8 construct: prey, AD fusion; also called PN19701; Soluble Starch Synthase
T8 sequence: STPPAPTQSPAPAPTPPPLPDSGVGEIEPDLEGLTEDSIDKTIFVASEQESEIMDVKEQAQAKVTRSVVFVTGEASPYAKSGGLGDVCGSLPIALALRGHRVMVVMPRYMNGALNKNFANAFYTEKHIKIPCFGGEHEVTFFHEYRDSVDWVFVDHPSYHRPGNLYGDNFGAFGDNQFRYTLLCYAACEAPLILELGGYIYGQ

T9: OsSSS aa 97-263 (Oryza sativa, UniProt A2Y9M4 97-263)
T9 construct: prey, AD fusion; also called PN19701
T9 sequence: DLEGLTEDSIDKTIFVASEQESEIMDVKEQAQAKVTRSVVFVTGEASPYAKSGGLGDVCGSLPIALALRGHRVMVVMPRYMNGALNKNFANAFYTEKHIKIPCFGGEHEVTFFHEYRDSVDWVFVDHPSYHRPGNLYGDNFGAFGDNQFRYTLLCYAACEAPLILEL

T10: PN24061 aa 34-236 (Oryza sativa, UniProt A2XLV9 34-236)
T10 construct: prey, AD fusion; also called Auxin induced protein-like
T10 sequence: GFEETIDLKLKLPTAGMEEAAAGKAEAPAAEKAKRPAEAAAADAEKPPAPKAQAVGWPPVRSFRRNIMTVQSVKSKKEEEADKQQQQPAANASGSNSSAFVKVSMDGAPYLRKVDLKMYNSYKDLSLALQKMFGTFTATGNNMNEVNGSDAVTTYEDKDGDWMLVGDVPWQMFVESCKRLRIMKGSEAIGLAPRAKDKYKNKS

T11: OsCS aa 316-583 (Oryza sativa, UniProt A2Y0X2 316-583)
T11 construct: bait, Gal4 DBD fusion; also called PN19707
T11 sequence: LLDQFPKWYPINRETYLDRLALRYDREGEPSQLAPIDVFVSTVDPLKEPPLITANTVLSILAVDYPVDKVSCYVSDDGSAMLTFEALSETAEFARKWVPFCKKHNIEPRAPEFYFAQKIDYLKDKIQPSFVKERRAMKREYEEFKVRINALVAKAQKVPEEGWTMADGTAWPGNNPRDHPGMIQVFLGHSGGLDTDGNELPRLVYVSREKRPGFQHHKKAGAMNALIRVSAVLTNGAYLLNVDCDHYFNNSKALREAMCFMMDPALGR

T12: Os003118-3674 aa 75-149 (Oryza sativa, UniProt Q84VG0 75-148)
T12 construct: bait, Gal4 DBD fusion; also called PN20551
T12 sequence: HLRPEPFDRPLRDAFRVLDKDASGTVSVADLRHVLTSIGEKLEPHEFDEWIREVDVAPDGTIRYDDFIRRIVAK

B1: PN31085 aa 378-553 (other)
chain: NGTISDSLGNLSELSDINLIGNNLTGHVPDSLTSLRLLQKLDLSGNDLTGPLPTFSPSVKVNVTGNLNFNGTAPGSAPSKDTPGSSSSRAPTLPGQGVLPENKKKRSAVVLATTIPVAVSVVALASVCAVLIFRKKRGSVPPNAASVVVHPRENSDPDNLVKIVMVNNDGNSSSTQ
notes: prey, AD fusion; also called Receptor-like protein kinase-like
B2: OsPN29037 aa 73-165 (other)
chain: VVFDKDGVLEQIGEGKGYVDMSTVDAATSCKISEAIKQKGGAFVEAPVSGSKKPAEDGQLVILAAGDKVLYDDMVPAFDVLGKKSFFLGEIGN
notes: prey, AD fusion; also called Novel Protein PN29037
B3: OsPN22824 aa 301-500 (other)
chain: DGEEVSCGIKAALAEKELEEEETKKMIEEESIDATAIDSGEKENPEVAELKAKLMAKDMEVAILTADNAELKKQVGEAAEAAKKAEEEAAAKASLVEQDLKERAAREARMGEQLRASEAARETLEAEMRRLRVQTEQWRKAAEAAPPVIGGDAHFVGHNGNGWGSPATMPDDCDDEGFGGKRKGAGIRMLGDLWKKKGSK
notes: prey, AD fusion
B4: OsERP (PN20696) aa 50-145 (other)
chain: PEWNETFMFSVTHNATELIIKLMDSDSGTDDDFVGEATISLEAIYTEGSIPPTVYNVVKEEEYRGEIKVGLTFTPEDDRDRGLSEEDIGGWKQSS
notes: bait, Gal4 DBD fusion; also called Elicitor responsive protein
B5: OsCHIB1 aa 10-200 (enzyme)
chain: YIGAQFTGVRFSDVPVNPGLSFHFILAFAIDYFMATQSSKPAPANGVFAPYWDTANLSPAAVAAAKAAHPNLSVILALGGDTVQNTGVNATFAPTSSVDAWVRNAADSVSGLIDAYGLDGVDVDYEHFAAGVDTFVECIGRLLTELKARHPNIATSIAPFEHPVVQRYYQPLWRRYAGVIDYVNFQFYGYG
notes: bait, Gal4 DBD fusion; also called PN19651; O. sativa Chitinase, Class III
B6: OsCRTC aa 250-425 (other)
chain: PKEIPDPDAKKPEAGADEEDGEWTAPTIRNPEYKGPWKQKKIKNPNYQGKWKPPMIATPDFQDDPYIYAFDSLKSIGIELWQVKSGTLFDNILITDDAALAKTFAEETWAKHKDAEKAAFDEAEKKKEEEEAAKAGEDDDDLDDEDAEDEDKADEKADSDAEDGKDSDDEKHDEL
notes: bait, Gal4 DBD fusion; also called PN20544
B7: OsSGT1 aa 200-368 (other)
chain: QMLSVSIEVPGEEPYHFQPRLFSKIIPEKSRYQVLSTKVEIRLAKAEQITWTSLDYDKKPKAVPQKIIPPAESAQRPSYPSSKSKKDWDKLEAEVKKEEKEEKLEGDAALNKFFRDIYSDADEDMRRAMMKSFVESNGTVLSTNWKDVGSKKVEGSPPDGMELKKWEY
notes: bait, Gal4 DBD fusion; also called PN20285
B8: OsCS aa 316-582 (other)
chain: LLDQFPKWYPINRETYLDRLALRYDREGEPSQLAPIDVFVSTVDPLKEPPLITANTVLSILAVDYPVDKVSCYVSDDGSAMLTFEALSETAEFARKWVPFCKKHNIEPRAPEFYFAQKIDYLKDKIQPSFVKERRAMKREYEEFKVRINALVAKAQKVPEEGWTMADGTAWPGNNPRDHPGMIQVFLGHSGGLDTDGNELPRLVYVSREKRPGFQHHKKAGAMNALIRVSAVLTNGAYLLNVDCDHYFNNSKALREAMCFMMDPALG
notes: prey, AD fusion; also called PN19707
B9: OsPN23878 aa 824-935 (other)
chain: SLARKHRAAIILQRNLKCWLARRYFVNIRKASVVIQSGIRGCLVRRCAGNVDLLNVLREFESKKEAEGDQILIKASFLAELQRRILKAEATVREKDEENEMLQQRLQQYENR
notes: prey, AD fusion
B10: PN20696 (OsERP) aa 54-144 (other)
chain: ETFMFSVTHNATELIIKLMDSDSGTDDDFVGEATISLEAIYTEGSIPPTVYNVVKEEEYRGEIKVGLTFTPEDDRDRGLSEEDIGGWKQSS
notes: prey, AD fusion; also called Elicitor responsive protein

For assay [1], the target named is T1, OsERP (PN20696) aa 23-120. Description: Y2H; output trait library. The method in brief:
(§1)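 Rice protein fragments, each defined by an amino-acid range, served as bait against rice prey clone libraries in an automated, high-throughput yeast two-hybrid screen supplied by Myriad Genetics Inc. Prey clones that interacted were retrieved from the output trait library. The sequences encoding the retrieved fragments were compared against databases by BLAST analysis to identify the full-length genes. Each value records whether an interaction was detected.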

Assay [2] deals with T2, Os006819-2510 aa 1-150. The assay is described as follows: Y2H; input trait library. The method in brief: (§2)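 Protein-protein interactions were detected with an automated, high-throughput yeast two-hybrid assay provided by Myriad Genetics Inc. (Salt Lake City, Utah). A bait clone encoding a defined amino-acid fragment of a rice protein was screened against a rice prey library, either the input trait or the output trait library. Prey clones were retrieved, and their encoding sequences were compared by BLAST against databases to identify the interacting proteins.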

Assay [3] addresses T13, OsRACD aa 1-198 (Oryza sativa, UniProt Q6EP31 1-197).
T13 construct: bait, Gal4 DBD fusion; also called PN19695
The assay is described as follows: Y2H; input trait library. The procedure, abridged:
as §2

The target of assay [4] is T3, PN20674 aa 64-263. The assay is described as follows: Y2H; input trait library. The method in brief:
as §2

The target of assay [5] is T4, PN20674 aa 71-298. The assay is described as follows: Y2H; input trait library. The procedure, abridged: as §2
For assay [6], the target named is T5, OsCATA aa 332-433. The assay is described as follows: Y2H; input trait library. The procedure, abridged: as §2
Assay [7] addresses T6, OsCS aa 411-489. The assay is described as follows: Y2H; input trait library. The method in brief: as §2
Assay [8] has as its target T7, OsPN22154 aa 390-562. The assay is described as follows: Y2H; input trait library. The procedure, abridged: as §2
Assay [9] concerns the target T8, OsSSS aa 68-270. Description: Y2H; input trait library. The procedure, abridged: as §2
Assay [10] concerns the target T9, OsSSS aa 97-263. The assay is described as follows: Y2H; output trait library. The procedure, abridged:
as §2

In assay [11] the target is T10, PN24061 aa 34-236. Description: Y2H; output trait library. The method in brief: as §1
For assay [12], the target named is T11, OsCS aa 316-583. The assay is described as follows: Y2H; input trait library. The procedure, abridged:
as §2

The target in assay [13] is T12, Os003118-3674 aa 75-149. The assay is described as follows: Y2H; output trait library. The procedure, abridged:
as §2

For assay [14], the target named is B7. Description: Y2H; input trait library. The procedure, abridged: as §2

T13 sequence (Q6EP31 whole entry, the tested form may be a part): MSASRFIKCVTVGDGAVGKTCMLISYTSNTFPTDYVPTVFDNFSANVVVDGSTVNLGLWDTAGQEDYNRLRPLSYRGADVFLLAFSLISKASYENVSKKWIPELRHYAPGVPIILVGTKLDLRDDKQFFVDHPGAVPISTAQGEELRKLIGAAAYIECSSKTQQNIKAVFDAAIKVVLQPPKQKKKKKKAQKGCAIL

Take B1: the binding result in assay [1] is recorded as “binds”.

As for B2, in assay [2], the binding result is “binds”. B3: the binding result in [3] is “binds”. For B4, the binding result in [4] and in [5] was “binds” in each case.

Consider B5, for which the binding result in assay [6], in [7] and in assay [8] was “binds” each time.

With B6, the binding result in assay [9] and in assay [10] was “binds” each time. Take B7: the binding result in assay [11] is listed as “binds”. Take B8: the binding result in assay [12] is “binds”.

Regarding B9, the binding result in [13] is reported as “binds”.

Consider B10, for which the binding result in assay [14] was “binds”.

The record behind these values is US20060253917A1 (published 2006).
